Experimental findings from paper PMC5082758, “A Novel Pathway for Metabolism of the Cardiovascular Risk Factor Homoarginine by alanine:glyoxylate aminotransferase 2” (Scientific Reports, 2016) are described below.

Substrate in data set [1]: C[C@H](N)C(=O)O
The data set can be described thus: purified protein. Conditions: amino donor, co-substrate 1 mM glyoxylate, PLP added (200 μM in methods, 100 μM in Figure 3 legend), potassium phosphate pH 8, 0.15 M NaCl, 25 °C.

Substrate in data set [2]: N=C(N)NCCCC[C@H](N)C(=O)O
Description: purified protein. The data set is classed as biochemical, Homo sapiens. Conditions: amino donor, co-substrate 1 mM pyruvate, PLP added (200 μM in methods, 100 μM in Figure 3 legend), potassium phosphate pH 8, 0.15 M NaCl, 25 °C.

B1: human alanine:glyoxylate aminotransferase 2 (AGXT2) (Homo sapiens) (protein)
chain: LHTKPRMPPCDFMPERYQSLGYNRVLEIHKEHLSPVVTAYFQKPLLLHQGHMEWLFDAEGSRYLDFFSGIVTVSVGHCHPKVNAVAQKQLGRLWHTSTVFFHPPMHEYAEKLAALLPEPLKVIFLVNSGSEANELAMLMARAHSNNIDIISFRGAYHGCSPYTLGLTNVGTYKMELPGGTGCQPTMCPDVFRGPWGGSHCRDSPVQTIRKCSCAPDCCQAKDQYIEQFKDTLSTSVAKSIAGFFAEPIQGVNGVVQYPKGFLKEAFELVRARGGVCIADEVQTGFGRLGSHFWGFQTHDVLPDIVTMAKGIGNGFPMAAVITTPEIAKSLAKCLQHFNTFGGNPMACAIGSAVLEVIKEENLQENSQEVGTYMLLKFAKLRDEFEIVGDVRGKGLMIGIEMVQDKISCRPLPREEVNQIHEDCKHMGLLVGRGSIFSQTFRIAPSMCITKPEVDFAVEVFRSALTQHMERRAK
notes: C-terminal FLAG fusion under CAG promoter; tag kept
For the protein B1, in data set [1], the Km – broadly, the concentration of substrate that gives half-maximal velocity – came out at 25 ± 3 mM; the kcat (as a rule, the number of substrate molecules converted per active site and unit of time at saturation) was 0.142 ± 0.0083 s⁻¹; the specificity constant (kcat/Km) (commonly the turnover number divided by the Michaelis constant) was found to be 5.67 M⁻¹ s⁻¹. In data set [2], the Km was determined as 24 ± 3 mM, the kcat amounted to 0.0188 ± 0.00067 s⁻¹ and the kcat/Km is 0.783 ± 0.1 M⁻¹ s⁻¹.
